Measured values from PMC4459817, “Vasculotide reduces endothelial permeability and tumor cell extravasation in the absence of binding to or agonistic activation of Tie2” (EMBO Molecular Medicine, 2015).

T1: mouse Tie2-Fc (Fc-conjugated extracellular domain of Tie2) (mouse, UniProt Q02858 23-746)
T1 chain: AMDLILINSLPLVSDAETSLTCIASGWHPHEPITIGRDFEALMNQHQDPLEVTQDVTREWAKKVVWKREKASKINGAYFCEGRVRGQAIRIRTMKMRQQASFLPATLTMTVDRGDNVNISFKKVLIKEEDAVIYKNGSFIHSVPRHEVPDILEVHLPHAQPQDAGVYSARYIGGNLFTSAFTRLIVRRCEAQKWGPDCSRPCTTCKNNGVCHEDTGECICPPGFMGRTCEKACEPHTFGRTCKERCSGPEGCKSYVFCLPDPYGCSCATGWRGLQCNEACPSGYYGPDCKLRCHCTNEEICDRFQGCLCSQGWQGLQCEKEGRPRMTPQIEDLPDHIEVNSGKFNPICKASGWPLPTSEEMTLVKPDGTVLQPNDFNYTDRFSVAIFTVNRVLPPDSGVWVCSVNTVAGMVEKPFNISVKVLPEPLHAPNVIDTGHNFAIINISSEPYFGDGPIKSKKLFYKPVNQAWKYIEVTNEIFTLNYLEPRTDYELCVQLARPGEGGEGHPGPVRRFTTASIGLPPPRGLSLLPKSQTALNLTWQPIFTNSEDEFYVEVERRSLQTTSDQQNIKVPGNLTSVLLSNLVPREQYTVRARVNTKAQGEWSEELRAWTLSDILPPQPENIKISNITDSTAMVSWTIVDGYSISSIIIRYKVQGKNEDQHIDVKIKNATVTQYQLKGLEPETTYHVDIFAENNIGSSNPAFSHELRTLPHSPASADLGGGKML

T2: human Tie2-Fc (Fc-conjugated extracellular domain of Tie2) (human, UniProt Q02763 23-748)
T2 chain: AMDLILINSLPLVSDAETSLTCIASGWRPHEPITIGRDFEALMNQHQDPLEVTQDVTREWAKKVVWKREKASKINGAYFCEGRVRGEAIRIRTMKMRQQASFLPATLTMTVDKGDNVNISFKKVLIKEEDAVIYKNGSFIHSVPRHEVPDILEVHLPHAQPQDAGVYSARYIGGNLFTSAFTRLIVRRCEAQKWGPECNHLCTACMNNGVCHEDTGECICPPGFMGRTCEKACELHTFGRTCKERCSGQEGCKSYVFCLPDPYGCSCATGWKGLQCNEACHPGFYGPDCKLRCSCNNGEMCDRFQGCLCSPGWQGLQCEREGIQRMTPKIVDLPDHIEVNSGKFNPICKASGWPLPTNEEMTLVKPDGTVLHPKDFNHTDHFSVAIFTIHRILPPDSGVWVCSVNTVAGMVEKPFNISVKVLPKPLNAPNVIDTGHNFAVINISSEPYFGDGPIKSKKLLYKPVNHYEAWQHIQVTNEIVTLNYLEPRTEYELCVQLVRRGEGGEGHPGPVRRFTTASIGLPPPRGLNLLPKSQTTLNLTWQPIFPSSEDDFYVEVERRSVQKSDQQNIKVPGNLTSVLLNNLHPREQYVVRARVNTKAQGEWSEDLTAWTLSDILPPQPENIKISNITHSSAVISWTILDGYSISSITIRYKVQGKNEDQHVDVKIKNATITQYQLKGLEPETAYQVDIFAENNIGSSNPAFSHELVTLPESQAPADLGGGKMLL

B1: BowAng1 (Ang-F1-Fc-F1) (ligand)
chain: RDCADVYQAGFNKSGIYTIYINNMPEPKKVFCNMDVNGGGWTVIQHREDGSLDFQRGWKEYKMGFGNPSGEYWLGNEFIFAITSQRQYMLRIELMDWEGNRAYSQYDRFHIGNEKQNYRLYLKGHTGTAGKQSSLILHGADFSTKDADNDNCMCKCALMLTGGWWFDACGPSNLNGMFYTAGQNHGKLNGIKWHYFKGPSYSLRSTTMMIRPLDFRDCADVYQAGFNKSGIYTIYINNMPEPKKVFCNMDVNGGGWTVIQHREDGSLDFQRGWKEYKMGFGNPSGEYWLGNEFIFAITSQRQYMLRIELMDWEGNRAYSQYDRFHIGNEKQNYRLYLKGHTGTAGKQSSLILHGADFSTKDADNDNCMCKCALMLTGGWWFDACGPSNLNGMFYTAGQNHGKLNGIKWHYFKGPSYSLRSTTMMIRPLDF
B2: COMP-Ang1 (ligand)
chain: DLAPQMLRELQETNAALQDVRELLRHRVKEITFLKNTVMECDACGDTVHNLVNLCTKEGVLLKGGKREEEKPFRDCADVYQAGFNKSGIYTIYINNMPEPKKVFCNMDVNGGGWTVIQHREDGSLDFQRGWKEYKMGFGNPSGEYWLGNEFIFAITSQRQYMLRIELMDWEGNRAYSQYDRFHIGNEKQNYRLYLKGHTGTAGKQSSLILHGADFSTKDADNDNCMCKCALMLTGGWWFDACGPSNLNGMFYTAGQNHGKLNGIKWHYFKGPSYSLRSTTMMIRPLDF

Key:
human Tie2-Fc (hTie2-Fc) = biological target: T3, human Tie2-Fc (hTie2-Fc) (Homo sapiens, UniProt Q02763); test: SPR binding to human Tie2-Fc; conditions: human Tie2-Fc, 0.625–10 nM, 37°C, pH 7.4, Fig9C
T3 construct: Purified human or mouse Tie2-Fc (i.e., Fc-conjugated extracellular domains of Tie2); purchased R&D Systems 313-TI-100
Excerpt: (§1) To better understand the difficulties we had in observing Tie2 activation by VT, we sought to characterize the binding affinity and kinetics of VT to Tie2. Purified human or mouse Tie2-Fc (i.e., Fc-conjugated extracellular domains of Tie2) were first coupled to protein A sepharose beads for pull-down experiments (Fig9A and B) or immobilized on a Biacore CM5 sensor chip for surface plasmon resonance (SPR) experiments (Fig9C and Supplementary Fig S3).
Figure 9 Binding of Vasculotide vs. Ang1 variants to the extracellular domain of Tie2 • A–B Pull-down assay. Input ligands—rhAng1 (A) and VT (B)—were incubated with either protein A sepharose beads only, bead-conjugated mouse Tie2-Fc (mTie2), or bead-conjugated human Tie2-Fc (hTie2). […] The ‘unbound’ fraction is 7% of residual/free ligands remaining in the supernatant. • C Quantitative kinetics analysis by SPR. All analytes were run at increasing concentrations of 0.625, 1.25, 2.5, 5, and 10 nM, at 37°C and pH 7.4. […] Source data are available online for this figure. […]
(§2) 9. Tie2 Receptor-Binding Assays
(§3) Vasculotide (VT) was manufactured by Bachem UK Ltd. T7c (CHHHRHSF) was synthesized by Genscript (Piscataway, NJ, USA). PEG-Cys consists of a single cysteine reacted to each of the 4 arms of PEG-maleimide (Sunbright PTE-100MA, NOF Corporation, Tokyo, Japan). BowAng1 (Ang1-Fd-Fc-Fd) was made and provided by Regeneron Pharmaceuticals, Inc. (Tarrytown, NY, USA). COMP-Ang1 was purified in the Kerbel lab from serum-free culture media conditioned by an engineered CHO cell line provided by Dr. Gou Young Koh (KAIST), according to published protocols (Hwang et al, 2008).
(§4) Recombinant human Angiopoietin-1 (rhAng1) and Vascular Endothelial Growth Factor ( rhVEGF) were […]
(§5) purchased from R&D Systems. […]
(structural/molecular weight control for VT), and 40 μL of supernatant (7% of residual/unbound ligand) – were similarly boiled in SDS sample buffer. Ang1 samples and controls were resolved by 7.5% polyacrylamide gel electrophoresis (PAGE), electroblotted onto PVDF membranes, and probed with an anti-Ang1 antibody (R&D Sytems, AF923; diluted 1:2,000 in TBS supplemented with 7% BSA and 0.1% Tween-20) at 75kDa (reduced monomers). VT samples and controls were resolved by 17% PAGE, blotted onto PVDF membranes, and probed with an anti-PEG antibody (Silver Lake Research, CH2074; diluted 1:4,000 in TBS supplemented with 7% BSA and 0.05% CHAPS*) at higher “apparent” molecular weights than the expected 14 and 10kDa due to their polymeric nature and large hydrodynamic radii (Zheng et al, 2007). *Note: non-ionic, PEO-based, polymer detergents were avoided at these steps as they cross-react with the anti-PEG antibody used for detecting VT.
Surface Plasmon Resonance (SPR) Experiments: The binding of analytes – VT, T7c peptide, PEG-Cys, rhAng1, COMP-Ang1, BowAng1, and rhVEGF – to the extracellular domain of Tie2 were […]
investigated by SPR using a Biacore T200 Instrument (GE Healthcare). For qualitative binding analysis, mTie2-Fc was dissolved in 10mM acetate buffer (pH 4.5) and immobilized at high density onto a CM5 sensor chip using amine coupling chemistry as described by the manufacturer to a response of 11,500RU.
Binding analysis were performed by exposure of immobilized mTie2-Fc to the analytes diluted in HBS-EP (0.01M HEPES pH 7.4, 0.15M NaCl, 3mM EDTA, 0.005% v/v Tween-20), which was supplemented with 1mg/mL carboxymethyl dextran (NSB reducer, GE Healthcare) to reduce non-specific binding to the sensor chip. Analytes were injected at 30μL/min (association time 120s, dissociation time 120s) at 37 °C, and the chip surface was regenerated each cycle by a 60s pulse of 4M MgCl2. To quantitatively determine the kinetic properties of the interaction (KD, kd, ka) and avoid mass transport limitations, mTie2-Fc and hTie2-Fc were immobilized at low density (1,000-1,200RU) onto separate flow cells of the CM5 chip using amine coupling chemistry. Kinetic analyses were performed using a single-cycle kinetic […]

mouse Tie2-Fc (mTie2-Fc) = biological target: T4, mouse Tie2-Fc (mTie2-Fc) (Mus musculus, UniProt Q02858); test: SPR binding to mouse Tie2-Fc; conditions: mouse Tie2-Fc (low- and high-density), 37°C, pH 7.4, Supplementary Fig S3
T4 construct: Purified human or mouse Tie2-Fc (i.e., Fc-conjugated extracellular domains of Tie2); purchased R&D Systems 762-T2-100
Excerpt: as §1, with “S3). […]” for “S3).”
as §2, §3, §4, §5
(structural/molecular weight control for VT), and 40 μL of supernatant (7% of residual/unbound ligand) – were similarly boiled in SDS sample buffer. […]
Binding analysis were performed by exposure of immobilized mTie2-Fc to the analytes diluted in HBS-EP (0.01M HEPES pH 7.4, 0.15M NaCl, 3mM EDTA, 0.005% v/v Tween-20), which was supplemented with 1mg/mL carboxymethyl dextran (NSB reducer, GE Healthcare) to reduce non-specific binding to the sensor chip. […] To quantitatively determine the kinetic properties of the interaction (KD, kd, ka) and avoid mass transport limitations, mTie2-Fc and hTie2-Fc were immobilized at low density (1,000-1,200RU) onto separate flow cells of the CM5 chip using amine coupling chemistry. […] All data were analysed using BIA Evaluation Software 2.0 (GE Healthcare) to calculate kd, ka and KD using the 1:1 ligand binding model. […]

[1] = biological target: Tie2 (Ang1 or Ang2 binding); conditions: synthetic free form, ref Tournaire et al, 2004, cited from earlier work; for inhibition of Ang1 or Ang2 binding to Tie2: competition assays, tested up to 1 mM
Excerpt: For therapeutic use, recombinant variants or mimetics of multimeric Ang1 have been engineered, including Ang1* and Ang-F1-Fc-F1/Bow-Ang1 (Davis et al, [2003]; Daly et al, [2013]), MAT-Ang1 and COMP-Ang1 (Cho et al, [2004]; Koh, [2013]). […] The main focus of the original paper that discovered T7 (Tournaire et al, [2004]) was actually on a different peptide called ‘T4’ (NLLMAAS) and its potential use as a Tie2 inhibitor/antagonist.

[2] = biological target: T1, mouse Tie2-Fc (Fc-conjugated …); test: SPR
[3] = biological target: T2, human Tie2-Fc (Fc-conjugated …); test: SPR
[4] = biological target: T2, human Tie2-Fc (Fc-conjugated …); test: SPR
[5] = biological target: T1, mouse Tie2-Fc (Fc-conjugated …); test: SPR

Row | Molecule | inhibition of Ang1 or Ang2 binding to Tie2 [1] | koff [2] | koff [3] | Kd [4] | Kd [5] | also measured
1 | VEGF |  |  |  |  |  | binding to Tie2-Fc (human Tie2-Fc (hTie2-Fc)): no binding to Tie2-Fc was detectable; binding to Tie2-Fc (human Tie2-Fc (hTie2-Fc); listed as rhVEGF): no detectable binding; binding to Tie2-Fc (mouse Tie2-Fc (mTie2-Fc)): no binding to Tie2-Fc was detectable
2 | NLLMAAS [T4] | able to competitively inhibit Ang1 or Ang2 binding to Tie2 |  |  |  |  | Ki ([1]; ELISA and SPR, read-out: Ki, competitive inhibition of Ang1 or Ang2 binding to Tie2): ~300000 nM
3 | HHHRHSF [T7, HHHRHSF, heptapeptide identified by phage display, synthetic free form] | did not inhibit Ang1 or Ang2 binding to Tie2 |  |  |  |  | 
4 | B1 |  | 0.00231 s⁻¹ | 0.00232 s⁻¹ | 0.611 nM | 0.465 nM | 
5 | B2 |  | 0.00208 s⁻¹ | 0.00361 s⁻¹ | 1.36 nM | 1.32 nM | 
